Test results taken from the supplement of paper PMC9170038.

Tested on: K4 kissing-loop RNA reporter
Assay: apparent KD of K4 kissing-loop reporter; higher = weaker reporter binding
Settings: Eterna round: R107
Protocol: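 RNA-MaP round R107: designed RNA switches with theophylline, tryptophan, arginine or FMN aptamers are transcribed on-chip within common flanks. They are titrated with a labelled K4 kissing-loop RNA reporter in RNA-MaP buffer (100 mM Tris pH 7.5, 80 mM KCl, 4 mM MgCl2), without ligand or with the indicated ligand. Median apparent KD per design.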

[1] = input ligand: theophylline 20 uM
[2] = input ligand: tryptophan 2.4 mM
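Note: bound reporter read as fluorescence of individual clusters on recovered sequencing chips by microscopy, with normalized cluster intensities fitted with a binding model.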

Sequence	apparent KD of K4 kissing-loop reporter (input ligand: FMN 200 uM) [µM]	apparent KD of K4 kissing-loop reporter (input ligand: arginine 13.2 mM) [µM]	apparent KD of K4 kissing-loop reporter (input ligand: none) [µM]	apparent KD of K4 kissing-loop reporter [1] [µM]	apparent KD of K4 kissing-loop reporter [2] [µM]
GUCUCAAAAGAGGCAAGCACUCACGAGGACAAGGAUAUCAUAUCAAUGAGAAGGUGUCCUCGUCCUUAGUGAUGUUAAGGAGUGC [Omei KL FMN A SS E v3]	0.297	0.298	0.357	0.196	0.33
CUCAGAAAGACUGUCCAAGUGAUGUUUGGACGAGGACCGGUACGGCCGCCACUCGCUGUUGCGAAUGUUAAGGUACGAGUCGCGG [theeternabot_exclusion_KL_Trp_A_30]	0.0848	0.0897	0.0891	0.101	0.0917
AGAGUUAUGCGAGGAUAUGCGGUUAGUACUCAAAGAGUACUAACAGCAGAGUGAUGUUCUGUGAAAGCAGAAGGUGCAUAACUCA [Omei KL FMN B SS B v10]	0.153	1.06	1.04	1.12	1.32
UACAUAUAGUUAUUUCUACAUUUAUUUAGUCAGGAUAUCGAUUAGACGAGAAGGGACAAUAUCAAGUGAUGUUUGAUAAUUCAAA [JR_ExcFMNA_Sub011]	0.0757	0.111	0.0684	0.1	0.0532
CUUCGUAAGGGCCCAGUGAUGUUGGGCACUCGAGGACCGGUACGGCCGCCACUCGCUCCCUAAGUCGCGCGCGUGGGCCACCGCC [Rezariatra]	0.128	0.111	0.116	0.102	0.139
GUCAUCAGAUCGCAAGAUCUGAUAGCCGAUACCAGCGCGAAGGUGCGCCCUUGGCAGCGGCACCGAGUGAUGUUCGGUCAGACGA [#2 Same State - Theophylline A Attempt #5 (HarryS)]	0.526	0.392	0.514	0.33	0.427
ACACAGAGUUGCCGAGUGAUGUUCGGCUUACGAGGACCGGUACGGCCGCCACUCGUUACUCUGUGUUUUGGACACCAAGGCGUCG [Tionzaanon]	0.651	0.449	0.543	0.505	0.201
CCGUAGCGAUCGGCCGCCACUCAAGAUCGCCAACUAUCACACGGUUCUCCCGAGUGAUGUUCUAGGAGGACCGGGAUUGUUGCUC [theeternabot_exclusion_KL_Trp_B_13]	0.421	0.322	0.378	0.374	0.388
UGUACCGAGUCAGGAUAUCAACGACUGACAAAAGUCGGUCGAAUAUCCAGUGAUGUUGGAAAUAAAUGAGAAGGGACUUGGUACU [FmnBS 14 #SwitchBubble #StaticStem]	0.125	0.258	0.276	0.264	0.265
AAGGCAAUUCGAGGAUAUCACAUACACUCCUUGAAUCAAGGAGUGAUGUUCCUUGAAGUGUAUGCAUGAGAAGGCGAAUUGCCUU [#05 K4 FMN B Same State]	0.113	0.0865	0.0954	0.0993	0.0953
GGGUCAGUCUGAAGGAGCGGCCAGACAGAGCAGUGAUGUUGCUCCUAAUUUAAAAGUGUCGGCCAGGUAGGUCGCAGAUUGGCUC [Dienralais]	0.154	0.127	0.161	0.152	0.165
UAAGAAUAAGUAGCAGUGAUGUUGCUACUGCGAGGACCGGUACGGCCGCCACUCGAGUCCUCGAAGCAUCACUGAACGAGGAAUA [whbob_SS_Tryp_A_m12]	0.272	0.229	0.278	0.326	0.36
CUAUGGAAACAUAGGAGUCGGGAAACCGAUACCAGUAUGGAAACAUACCCUUGGCAGCGGAAUGAUUCAACGGAGUGAUGUUCCG [Theophylline A K4 19]	0.458	0.366	0.4	0.322	0.366
AAUUUAUUAACUGAUACCAGACUUAAUAAAUUUUAAAUCACUAGUGAUGUUAGUGAAUAUGUCCCUUGGCAGCAGUAUUUAUUAA [JR_SSTheophyB_Sub023]	0.132	0.134	0.125	0.121	0.115
UUUGGAUUGCGCGAAGAGUGCAAGCGCCAACGAGGACCGGUACGGCCGCCACUCGCGGAGGAGUCCAGUGAUGUUGGACGGCCCG [Laraones]	0.271	0.276	0.281	0.29	0.185
AAUAUCUAGUAUAUAUUUUAUAAAACAGAUACCAGUGAUUAUAUACACCCUUGGCAGCUGGACGAGUGAUGUUCGUAUAUAUUAA [JR_SSTheophyA_Sub008]	0.118	0.188	0.147	0.244	0.089
GGGCCUCUGGCUGAUACCAGUGAUGCAGGGUCCGAGACAGGGAGUGAUGUUCCCUGCAGCCACCCUUGGCAGCAGUUUAAGUUUG [Exclusion Theophylline B GF 19]	0.136	0.124	0.122	0.124	0.129
CAUGGAGUGAUGCUCCAUGAUCGGGCUUGGCAGGAUAUGGGAUCUUCCAGAAGGGCCGAUCCCAGCGAGUGAUGUUCGCUGGUCU [Exclusion FMN A GF 27]	0.119	0.107	0.113	0.116	0.108
GGCAUGCAUGGAAACAUGCAUGCCAUGCCUCGAGGACCGGUACGGCCGCCACUCGUUAAAAGAAAUGCCAGUGAUGUUGGCCGAA	0.443	0.43	0.528	0.5	0.175
UAUACUAGACAAGAGAGAAUUCUCUCAAGAGAGGAUAUCCGAAUUCGGAGAAGGCUCUCUCAGUGAUGUUGGGAAUAGUCUAGAA [AK6 SS FMN A]	0.15	0.151	0.188	0.229	0.177
UGUUCAAGUGAUGUUUGAGACUAGGUGGAUACCAGCGCAUGCAGUCGCCCUUGGCAGCCAGAAACCAACGCCGCGCGCUUCGGCU [theeternabot_sameState_KL_Theo_A_39]	0.342	0.325	0.464	0.35	0.334
UGACUGGAUGGAAGGAGCGCUAAACUCCUAGUGAUGUUAGGGACACGAGACAAAGUCUCGAGGCAGGUAGGUCGCCAUCUAGUCU [FiskerMod 7 - Jieux - Same State - Arginine B]	0.225	0.198	0.197	0.25	0.212

Sequence	apparent KD of K4 kissing-loop reporter (input ligand: FMN 200 uM) [µM]	apparent KD of K4 kissing-loop reporter (input ligand: arginine 13.2 mM) [µM]	apparent KD of K4 kissing-loop reporter (input ligand: none) [µM]	apparent KD of K4 kissing-loop reporter [1] [µM]	apparent KD of K4 kissing-loop reporter [2] [µM]
AGUGUUAGGUUAGAUACCAGCCGUUCGUGAAUAAUCCUCGAACCGCCAGUGAUGUUGGCAGGCCCUUGGCAGCUAACAGAACAGA [Maxeusla]	0.243	0.216	0.207	0.17	0.223
GUUACGCAUGGAAGGAGCGCUCUCCGGUUUAUUAACACAGUGAUGUUGUGAUUUUACCGAAAGCAGGUAGGUCGCCAUGUGUAAC [Ex Arginine B K4 12]	0.356	0.32	0.416	0.381	0.372
UGUUUUUACUGAAGGAGCGGCAAUUGAUACGUAGAUAUAGUGAUGUUAUAUAAGAUAGAGAGCCAGGUAGGUCGCAGAGUUUUUC [ExArgB.Z]	0.167	0.167	0.161	0.179	0.154
UGUUUUUACUGAAGGAGCGGCAAUUGAUACGUAGAUAUAGUGAUGUUAUAUAAGAUAGAGAGCCAGGUAGGUCGCAGAAUGAAUC [ExArgB.aD]	0.209	0.188	0.19	0.242	0.156
GGGAGUAGUGCGGCCGCCACUGAGAAAGAAGAAGAAUAUAGUGAUGUUAUAUAGGAAGGGAAGAACAGGACCGGGCAUUAGAUUU [SSTRyptB.Y]	0.24	0.306	0.38	0.311	0.222
UUUAACGAGUGAUGUUCGAAAAGUAAUGGUUAGGAUAUCGUUUUUUCGAGAAGGAACCUCGAAGUGAUACGAAAGUAUCGCUUCG [FMN A 2]	0.173	0.428	0.264	0.466	0.24
AAGAGGUAGGCGGCCGCCACUAGUUGUGAACACAUACAAGCCAGUGAUGUUGGUAUGGUGGGCGGUAGGACCGGGCCUACCUGAA [Exclusion - Tryptophan B (Freestyle 17)]	0.23	0.263	0.257	0.25	0.243
UGUACCGAGUCAGGAUAUGGCGUCGAAAGACGAAUUCUAGUGAUGUUAGGGAUCUGCGAAAGCAGUCUAGAAGGGACUUGGUACU [FmnBS 26 U36+U68]	0.356	0.407	0.508	0.684	0.512
CCCUCACGAGUGAUGUUCGUAGGGUACAGUCAGGAUAUCAUGCGGUUGAGAAGGGACAGAGAGGGCGGCGGCGGGUUGCUCAUCG [Rabele]	0.15	0.125	0.153	0.166	0.124
GGGCCUCUGGCUGAUACCAGUGAUAAAGGGUAAGAGACAGGGAGUGAUGUUCCCUUUAGCCACCCUUGGCAGCAGUUUAAGUUUG [Exclusion Theophylline B GF 18]	0.0848	0.0828	0.0855	0.0866	0.0773
GUUACGCAUGGAAGGAGCGCUCUCAUGCUUAAUAACACAGUGAUGUUGUGAAUUUGCAUAAAGCAGGUAGGUCGCCAUGUGUAAC [Ex Arginine B K4 8]	0.399	0.303	0.359	0.291	0.332
AGUGCACUGUCAGGAUAUAUACAGUGAUGUUGUGUAUGUCAGCAAGUCAAAGACUUGCUGUUCUGUGUAGAAGGGACUGUGUACA [Omei KL FMN B Exc A v3]	0.911	0.457	0.45	0.467	0.426
UGAUAGGACAGAAGGAGCGGAAGUGAUGUUUCCAAAAGGGAAGGUCGACAAAGUCGACCCUUCCAGGUAGGUCGCUGUCCUAUCU [ArgBX 9 #Palindromic #SwitchBubble #StaticStem]	0.0759	0.0725	0.0739	0.0861	0.0687
UGUGUUGUUUUGAUGUUUGGUGUAAGUUGGCAGGAUAUCGUAGAGGCGAGAAGGGCUUUUAUGCGUUAUGAGUGAUGUUUGUAGG [zrrzmullin]	0.64	0.33	0.538	0.404	0.699
AGUGAUGUGGGAAGGAGCGGUACAUGACUUCAGUGAUGUUGAAGUGAUGAUUUAGUGAUGUGCCAGGUAGGUCGCCUAGAUGUUA [KL-XARG-B7]	0.0798	0.0367	0.0681	0.0418	0.051
UAAGCUCUGACGGCCGCCACUGCACGUGAUCCAGUAGUGGCUAACAUGAGUGAUGUUCAUGUAAGCAGGACCGGGUCAGAGCUAA [KL-XTryp-B13 #analogue]	0.103	0.0879	0.0947	0.0817	0.12
CGCAAGCAGCUAGUGAUGUUGGCCGCCUUGCGAGGACCGGUACGGCCGCCACUCGGAGGCGGCUACUGAUAAACCGUCUAACGGA [KL-XTryp-A10]	0.0875	0.0672	0.0843	0.0706	0.224
GGUGUUGUUUGUGCUGUUUUCUUUGUUUCUCGAGGACCGGUACGGCCGCCACUCGAGUGAUGUUUGGGUAGUGAUGUUUGUUAGU [Bdazzled #1 Exc. TA]	0.241	0.147	0.198	0.18	0.239
GCGGGCCCGGGAGGAUAUGAGUCGAGUGAUGUUCGGCGGUCCAUGCCGUUGCGGCGUUAAGCCCUUUUAGAAGGCCCGGGCCCGC [#2 Exclusion - FMN B Attempt #2 (HarryS)]	0.208	0.137	0.161	0.138	0.184
UGUCAUUGGUCGGCCGCCACUUCAAGGUCAAAGACCAAAGAGUGAUGUUCUUAGACGAAAGUCAGAAGGACCGGGACCGAUGACU [TrypBS 9 #SwitchBubble #K4Middle]	0.318	0.144	0.204	0.245	0.727
AGAUUCGACACGGCCGCCACUCGUGGUGGAUUACCUAGUGUCGAAGUUGAGUGAUGUUCAACUACGAGGACCGGGUGUUGAGUCU [KL-XTryp-B7 #analogue]	0.253	0.161	0.215	0.211	0.448
